The values that follow come from publication PMC9462884, “Tensin3 interaction with talin drives the formation of fibronectin-associated fibrillar adhesions” (The Journal of Cell Biology, 2022).

The experiment has as its target T1, talin R11 (recombinant wild-type mouse talin1 fragment R11) (mouse, UniProt P26039 1974-2140).
T1 construct: talin1, mouse, R11 rod domain, residues 1,974–2,140; 15N-labelled for the NMR experiments; also called talin R11 domain
The experiment in a line: ITC; 80 µM R11 in the cell, 1.2 mM peptide in the syringe; 20 mM sodium phosphate pH 6.5, 50 mM NaCl, 0.5 mM TCEP, 25°C; single-site binding model. The settings on record: both partners purified. On the technique in general: Isothermal titration calorimetry measures the heat released or taken up as one component is titrated into another.

T1 sequence (P26039 1974-2140): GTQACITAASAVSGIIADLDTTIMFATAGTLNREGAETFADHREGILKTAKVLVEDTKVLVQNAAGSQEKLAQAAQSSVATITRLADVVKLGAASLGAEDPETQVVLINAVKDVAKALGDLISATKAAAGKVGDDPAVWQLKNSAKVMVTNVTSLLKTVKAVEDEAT

B1: tensin3 H1 peptide (peptide)
chain: TLDIDQSIEQLNRLILELDPT
modifications: synthetic peptide; terminal capping not stated. Limits conflict in the text: methods give 692-712 (used here, from the peptide purchase description and close to the predicted helix 690-710), results …
Consider B1, for which the Kd (commonly the equilibrium constant for the complex coming apart) came out at 17 µM and the dH is 4.8 kcal/mol.
